Reference: paper PMC2133165 (The Journal of Cell Biology, 1999)

Experiments:
SF3a60 = target: T1, SF3a60 (human (endogenous in HeLa), UniProt Q12874 1-501); experiment: co-IP
T1 sequence: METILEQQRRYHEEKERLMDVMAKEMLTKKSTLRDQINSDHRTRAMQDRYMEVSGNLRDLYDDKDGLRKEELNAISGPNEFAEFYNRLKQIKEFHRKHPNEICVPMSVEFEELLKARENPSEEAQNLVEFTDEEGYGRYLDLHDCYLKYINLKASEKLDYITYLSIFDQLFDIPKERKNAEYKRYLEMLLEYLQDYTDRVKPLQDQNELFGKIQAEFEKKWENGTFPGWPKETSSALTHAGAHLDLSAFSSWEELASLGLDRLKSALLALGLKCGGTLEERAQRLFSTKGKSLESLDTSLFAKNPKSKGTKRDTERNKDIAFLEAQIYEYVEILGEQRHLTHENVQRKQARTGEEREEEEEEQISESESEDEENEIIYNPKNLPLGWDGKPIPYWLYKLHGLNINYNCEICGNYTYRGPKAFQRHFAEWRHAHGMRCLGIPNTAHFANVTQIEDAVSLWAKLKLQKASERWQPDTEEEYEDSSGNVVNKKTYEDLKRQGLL

SF3a120 = target: T2, SF3a120 (human (endogenous in HeLa), UniProt Q15459 1-793); experiment: co-IP
T2 sequence: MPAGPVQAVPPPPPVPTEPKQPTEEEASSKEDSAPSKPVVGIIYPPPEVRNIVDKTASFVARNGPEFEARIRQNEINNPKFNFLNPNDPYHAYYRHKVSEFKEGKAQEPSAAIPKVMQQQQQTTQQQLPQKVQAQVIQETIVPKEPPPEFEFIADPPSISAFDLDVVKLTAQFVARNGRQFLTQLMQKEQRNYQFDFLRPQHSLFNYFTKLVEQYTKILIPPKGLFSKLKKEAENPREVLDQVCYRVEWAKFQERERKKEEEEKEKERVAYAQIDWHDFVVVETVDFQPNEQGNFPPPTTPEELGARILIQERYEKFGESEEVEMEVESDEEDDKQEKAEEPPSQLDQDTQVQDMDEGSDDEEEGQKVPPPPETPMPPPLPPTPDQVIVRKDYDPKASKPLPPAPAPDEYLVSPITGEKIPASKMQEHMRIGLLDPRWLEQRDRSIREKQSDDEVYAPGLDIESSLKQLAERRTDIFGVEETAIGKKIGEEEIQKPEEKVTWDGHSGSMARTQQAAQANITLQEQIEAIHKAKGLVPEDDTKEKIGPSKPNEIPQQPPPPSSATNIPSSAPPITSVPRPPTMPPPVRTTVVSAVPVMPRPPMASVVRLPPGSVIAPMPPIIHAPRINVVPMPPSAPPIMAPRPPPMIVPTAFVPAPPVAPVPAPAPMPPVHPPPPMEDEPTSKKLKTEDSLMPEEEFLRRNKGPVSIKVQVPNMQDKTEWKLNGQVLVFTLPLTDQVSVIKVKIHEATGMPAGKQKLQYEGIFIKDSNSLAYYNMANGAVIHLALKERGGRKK

B1: SF3a66 (natural protein)
chain: MDFQHRPGGKTGSGGVASSSESNRDRRERLRQLALETIDINKDPYFMKNHLGSYECKLCLTLHNNEGSYLAHTQGKKHQTNLARRAAKEAKEAPAQPAPEKVKVEVKKFVKIGRPGYKVTKQRDSEMGQQSLLFQIDYPEIAEGIMPRHRFMSAYEQRIEPPDRRWQYLLMAAEPYETIAFKVPSREIDKAEGKFWTHWNRETKQFFLQFHFKMEKPPAPPSLPAGPPGVKRPPPPLMNGLPPRPPLPESLPPPPPGGLPLPPMPPTGPAPSGPPGPPQLPPPAPGVHPPAPVVHPPASGVHPPAPGVHPPAPGVHPPAPGVHPPTSGVHPPAPGVHPPAPGVHPPAPGVHPPAPGVHPPAPGVHPPPSAGVHPQAPGVHPAAPAVHPQAPGVHPPAPGMHPQAPGVHPQPPGVHPSAPGVHPQPPGVHPSNPGVHPPTPMPPMLRPPLPSEGPGNIPPPPPTN
B1: binds (SF3a60); binds (SF3a120).
